T1: FcγRIIa type H extracellular domain with C-terminal His tag (human, UniProt P12318 34-217)
T1 construct: extracellular domain; also called FcgRIIaH; FcγRIIa H
T1 sequence (looked up): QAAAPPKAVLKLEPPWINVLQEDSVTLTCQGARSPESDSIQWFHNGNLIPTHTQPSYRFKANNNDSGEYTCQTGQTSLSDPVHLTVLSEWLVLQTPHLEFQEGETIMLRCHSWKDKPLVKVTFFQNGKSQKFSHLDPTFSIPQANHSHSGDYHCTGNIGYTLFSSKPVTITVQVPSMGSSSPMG

T2: FcγRIIb extracellular domain with C-terminal His tag (human, UniProt P31994 43-217)
T2 construct: extracellular domain; also called FcgRIIb
T2 sequence (looked up): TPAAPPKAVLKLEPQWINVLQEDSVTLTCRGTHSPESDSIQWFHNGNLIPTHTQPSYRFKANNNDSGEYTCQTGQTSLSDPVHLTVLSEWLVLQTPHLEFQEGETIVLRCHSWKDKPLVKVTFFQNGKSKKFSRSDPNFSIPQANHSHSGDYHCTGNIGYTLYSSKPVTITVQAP

T3: FcγRIIb extracellular domain with C-terminal His tag (human, UniProt P31994 43-217)
T3 construct: extracellular domain; For crystallography it was expressed with kifunensine and trimmed with Endo F1; also called FcgRIIb; FcγRIIb extracellular region; not shown: His tag attached to the C terminus
T3 sequence (looked up): T2 sequence (looked up)

T4: FcγRIIa type R extracellular domain with C-terminal His tag (human, UniProt P12318 34-217)
T4 chain: T1 sequence (looked up) with H134R

B1: IL6R-2B253/IL6R-L (antibody, human IgG1, kappa)
heavy: QVQLQESGPGLVKPSETLSLTCAVSGHSISHDHAWSWVRQPPGEGLEWIGFISYSGITNYNPSLQGRVTISRDNSKNTLYLQMNSLRAEDTAVYYCARSLARTTAMDYWGEGTLVTVSSASTKGPSVFPLAPSSKSTSGGTAALGCLVKDYFPEPVTVSWNSGALTSGVHTFPAVLQSSGLYSLSSVVTVPSSSLGTQTYICNVNHKPSNTKVDKKVEPKSCDKTHTCPPCPAPDLLGGDSVFLFPPKPKDTLMISRTPEVTCVVVDVSHEDPEVKFNWYVDGVEVHNAKTKPREEQYNSTYRVVSVLTVLHQDWLNGKEYKCKMSNKALPAPIEKTISKAKGQPREPQVYTLPPSRDELTKNQVSLTCLVKGFYPSDIAVEWESNGQPENNYKTTPPVLDSDGSFFLYSKLTVDKSRWQQGNVFSCSVMHEALHNHYTQESLSLSP
light: not shown
B2: IL6R-BP206/IL6R-L (antibody, human IgG1, kappa)
heavy: B1 heavy with P273G, M325V, A332R
light: not shown
B3: IL6R-BP207/IL6R-L (antibody, human IgG1, kappa)
heavy: B1 heavy with M325V, A332R
light: not shown
B4: IL6R-BP209/IL6R-L (antibody, human IgG1, kappa)
heavy: B1 heavy with D235E, G239D, H270D, P273G, M325V, K328A, A332R
light: not shown
B5: IL6R-BP203/IL6R-L (antibody, human IgG1, kappa)
heavy: B1 heavy with D235E, G239D, P273G, M325V, A332R
light: not shown
B6: IL6R-BP199/IL6R-L (antibody, human IgG1, kappa)
heavy: B1 heavy with M325V, K328D, A332R
light: not shown
B7: IL6R-BP211/IL6R-L (antibody, human IgG1, kappa)
heavy: B1 heavy with H270D, P273G, M325V, K328A, A332R
light: not shown
B8: GpH7-AP001/GpH7-BP069/GpL16-k0 (antibody, human IgG1, kappa, name in EU numbering)
heavy 1: QVQLVQSGAEVKKPGASVTVSCKASGYTFTDYEMHWIRQPPGEGLEWIGAIDPKTGDTAYSESFQDRVTLTADKSTSTAYMELSSLTSEDTAVYYCTRFYSYTYWGQGTLVTVSSASTKGPSVFPLAPSSKSTSGGTAALGCLVKDYFPEPVTVSWNSGALTSGVHTFPAVLQSSGLYSLSSVVTVPSSSLGTQTYICNVNHKPSNTKVDKKVEPKSCDKTHTCPPCPAPELLGGDSVFLFPPKPKDTLMISRTPEVTCVVVDVSHEDPEVKFNWYVDGVEVHNAKTKPREEQYNSTYRVVSVLTVLHQDWLNGKEYKCKVSNKALPAPIEKTISKAKGQPREPQVYTLPPSRKELTKNQVSLTCLVKGFYPSDIAVEWESNGQPENNYKTTPPVLDSDGSFFLYSKLTVDKSRWQQGNVFSCSVMHEALHNRYTQKSLSLSP
heavy 2: not shown
light: DIVMTQSPLSLPVTPGEPASISCQASESLVHSNRNTYLHWYLQKPGQSPQLLIYKVSNRFSGVPDRFSGSGSGTDFTLKISRVEAEDVGVYYCSQNTHVPPTFGQGTKVEIERTVAAPSVFIFPPSDEQLKSGTASVVCLLNNFYPREAKVQWKVDNALQSGNSQESVTEQDSKDSTYSLSSTLTLSKADYEKHKVYACEVTHQGLSSPVTKSFNRGEC
notes: Heterodimerized anti-glypican 3 IgG1

Positions count from the first letter of the chain named.

For one assay, the target named is T5, FcγRIa extracellular domain with C-terminal His tag (human, UniProt P12314 16-292).
T5 construct: also called FcgRIa
T5 sequence (P12314 16-292): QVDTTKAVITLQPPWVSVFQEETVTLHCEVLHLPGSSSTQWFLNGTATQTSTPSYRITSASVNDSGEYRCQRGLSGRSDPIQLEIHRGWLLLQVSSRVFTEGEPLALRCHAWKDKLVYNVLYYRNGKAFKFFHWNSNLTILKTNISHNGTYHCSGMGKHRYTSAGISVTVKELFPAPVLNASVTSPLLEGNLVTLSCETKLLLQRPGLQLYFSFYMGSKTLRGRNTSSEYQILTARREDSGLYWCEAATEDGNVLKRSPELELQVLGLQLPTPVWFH
The assay can be described thus: SPR, captured antibody, FcgR analyte. For orientation: Surface plasmon resonance follows binding to a sensor surface in real time, without labels.
Procedure: (§1) Relative binding activities were calculated for the results of analyzing interactions with the respective FcγRs according to the following method.
As for B1, the relative binding activity is 155 relative (IL6R-BF648/IL6R-L = 100).
Same read-out and setting: under B2 stands 101 relative (IL6R-BF648/IL6R-L = 100).
Same read-out and setting: under B3 stands 74 relative (IL6R-BF648/IL6R-L = 100); under B4, 68 relative (IL6R-BF648/IL6R-L = 100); under B5, 35 relative (IL6R-BF648/IL6R-L = 100).
Same read-out and setting: to B6 belongs 112 relative (IL6R-BF648/IL6R-L = 100); to B7, 128 relative (IL6R-BF648/IL6R-L = 100).

For the next assay, the target named is T1, FcγRIIa type H extracellular domain …. The assay can be described thus: SPR, captured antibody, FcgR analyte.
Procedure: as §1
B1: the relative binding activity was 207 relative (IL6R-BF648/IL6R-L = 100).
On the same count and under the same terms, to B4 belongs 267 relative (IL6R-BF648/IL6R-L = 100); to B5, 255 relative (IL6R-BF648/IL6R-L = 100).

The target in a further assay is T2, FcγRIIb extracellular domain with …. The assay can be described thus: SPR, captured antibody, FcgR analyte.
Procedure: as §1
Consider B1, for which the relative binding activity is 156 relative (IL6R-BF648/IL6R-L = 100).
With B2, the relative binding activity is 168 relative (IL6R-BF648/IL6R-L = 100).
On the same count and under the same terms, to B3 belongs 124 relative (IL6R-BF648/IL6R-L = 100); to B4, 186 relative (IL6R-BF648/IL6R-L = 100); to B5, 185 relative (IL6R-BF648/IL6R-L = 100).
Still for that read-out and setting: under B6 stands 144 relative (IL6R-BF648/IL6R-L = 100); under B7, 165 relative (IL6R-BF648/IL6R-L = 100).

For another assay, the target named is T6, FcγRIIIa type V extracellular domain with C-terminal His tag (human, UniProt P08637 17-208).
T6 construct: extracellular domain; also called FcgRIIIaV; FcγRIIIaV
T6 sequence (P08637 17-208 F176V): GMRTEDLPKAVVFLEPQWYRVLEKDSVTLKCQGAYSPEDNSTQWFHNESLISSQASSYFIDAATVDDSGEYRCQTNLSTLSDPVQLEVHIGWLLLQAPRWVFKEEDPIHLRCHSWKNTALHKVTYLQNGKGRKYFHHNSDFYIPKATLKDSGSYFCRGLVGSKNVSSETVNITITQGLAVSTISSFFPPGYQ
The assay can be described thus: SPR, captured antibody, FcgR analyte.
Procedure: as §1
With B1, the relative binding activity is 126 relative (IL6R-BF648/IL6R-L = 100).
On the same count and under the same terms, under B2 stands 92 relative (IL6R-BF648/IL6R-L = 100); under B3, 97 relative (IL6R-BF648/IL6R-L = 100); under B4, 153 relative (IL6R-BF648/IL6R-L = 100).
Regarding B5, the relative binding activity is 88 relative (IL6R-BF648/IL6R-L = 100).
Still for that read-out and setting: under B6 stands 103 relative (IL6R-BF648/IL6R-L = 100); under B7, 87 relative (IL6R-BF648/IL6R-L = 100).

For a further assay, the target named is T3, FcγRIIb extracellular domain with …. The assay can be described thus: SPR binding amounts, FcgRIIb divided by FcgRIIaR.
As for B8, the “amount binding to FcgRIIb/amount binding to FcgRIIaR” value is 2.2.

Another assay has the same target. The assay can be described thus: SPR binding amount, relative to GpH7-AP001/GpH7-BF648/GpL16-k0.
Regarding B8, the “binding amount to FcgRIIb when that of GpH7-AP001/GpH7-BF648 is defined as 100” value came to 72.

Another assay has as its target T4, FcγRIIa type R extracellular domain …. Described as above.
Regarding B8, the “binding amount to FcgRIIaR when that of GpH7-AP001/GpH7-BF648 is defined as 100” value is 131.

The record behind these values is US20210261648A1 (published 2021).
